{"source": "patent US20140127175A1", "about": "(ZEALAND PHARMA A S, published 2014)", "binders": {"B1": {"name": "ZP2654 (peptide)", "peptide": "H-H[dS]QGTFTSDYSKYLDRARADDFVAWLKST-NH2", "SMILES": "CC(C)C[C@H](NC(=O)[C@H](Cc1c[nH]c2ccccc12)NC(=O)[C@H](C)NC(=O)[C@@H](NC(=O)[C@H](Cc1ccccc1)NC(=O)[C@H](CC(=O)O)NC(=O)[C@H](CC(=O)O)NC(=O)[C@H](C)NC(=O)[C@H](CCCNC(=N)N)NC(=O)[C@H](C)NC(=O)[C@H](CCCNC(=N)N)NC(=O)[C@H](CC(=O)O)NC(=O)[C@H](CC(C)C)NC(=O)[C@H](Cc1ccc(O)cc1)NC(=O)[C@H](CCCCN)NC(=O)[C@H](CO)NC(=O)[C@H](Cc1ccc(O)cc1)NC(=O)[C@H](CC(=O)O)NC(=O)[C@H](CO)NC(=O)[C@@H](NC(=O)[C@H](Cc1ccccc1)NC(=O)[C@@H](NC(=O)CNC(=O)[C@H](CCC(N)=O)NC(=O)[C@@H](CO)NC(=O)[C@@H](N)Cc1c[nH]cn1)[C@@H](C)O)[C@@H](C)O)C(C)C)C(=O)N[C@@H](CCCCN)C(=O)N[C@@H](CO)C(=O)N[C@H](C(N)=O)[C@@H](C)O"}}, "note": "Non-standard residues stand in square brackets, D forms with d.", "data": [{"molecular_target": "human glucagon receptor (human, UniProt P47871 26-477)", "test": "cell-based or functional assay", "units": {"EC50 of cAMP formation, HEK293 cells expressing human Glucagon-R": "nM"}, "values": [{"binder": "H-HSQGTFTSDYSKYLDRARADDFVEWLKST-NH2", "note": "[ZP2649]", "EC50 of cAMP formation, HEK293 cells expressing human Glucagon-R": 0.3}, {"binder": "H-HSQGTFTSDYSKYLDRARADDFVAWLKSA-NH2", "note": "[ZP2634]", "EC50 of cAMP formation, HEK293 cells expressing human Glucagon-R": 0.5}, {"binder": "H-HSQGTFTSDYSKYLDRARADDFVAWLKST-NH2", "note": "[ZP2495]", "EC50 of cAMP formation, HEK293 cells expressing human Glucagon-R": 0.5}, {"binder": "H-HSQGTFTSDYSKYLDRARAEDFVAWLKST-NH2", "note": "[ZP2637]", "EC50 of cAMP formation, HEK293 cells expressing human Glucagon-R": 0.2}, {"binder": "H-HSQGTFTSDYSKYLDRARADDFVAWLKEA-NH2", "note": "[ZP2635]", "EC50 of cAMP formation, HEK293 cells expressing human Glucagon-R": 0.2}, {"binder": "B1", "EC50 of cAMP formation, HEK293 cells expressing human Glucagon-R": 0.5}, {"binder": "H-HSQGTFTSDYSKYLDRARADDFVAWLERA-NH2", "note": "[ZP2650]", "EC50 of cAMP formation, HEK293 cells expressing human Glucagon-R": 0.07}, {"binder": "H-HSQGTFTSDYSKYLDRARAHDFVAWLKST-NH2", "note": "[ZP2648]", "EC50 of cAMP formation, HEK293 cells expressing human Glucagon-R": 0.2}]}, {"molecular_target": "human glucagon-like peptide 1 receptor (human, UniProt P43220 24-463)", "sequence (P43220 24-463)": "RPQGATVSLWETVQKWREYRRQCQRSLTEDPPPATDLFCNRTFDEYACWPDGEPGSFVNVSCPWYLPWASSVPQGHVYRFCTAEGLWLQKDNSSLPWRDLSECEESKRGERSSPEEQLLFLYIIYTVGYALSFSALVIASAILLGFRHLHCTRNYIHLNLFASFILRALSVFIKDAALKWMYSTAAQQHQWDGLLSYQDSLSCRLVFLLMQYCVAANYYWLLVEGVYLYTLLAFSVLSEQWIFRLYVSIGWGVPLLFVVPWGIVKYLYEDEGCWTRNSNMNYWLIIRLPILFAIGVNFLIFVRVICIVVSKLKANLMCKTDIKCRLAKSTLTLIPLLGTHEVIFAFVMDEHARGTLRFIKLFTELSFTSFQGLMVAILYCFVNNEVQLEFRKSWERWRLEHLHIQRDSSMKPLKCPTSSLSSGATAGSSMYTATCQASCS", "test": "cell-based or functional assay", "units": {"EC50 of cAMP formation, HEK293 cells expressing human GLP-1R": "nM"}, "values": [{"binder": "H-HSQGTFTSDYSKYLDRARADDFVEWLKST-NH2", "note": "[ZP2649]", "EC50 of cAMP formation, HEK293 cells expressing human GLP-1R": 0.1}, {"binder": "H-HSQGTFTSDYSKYLDRARADDFVAWLKSA-NH2", "note": "[ZP2634]", "EC50 of cAMP formation, HEK293 cells expressing human GLP-1R": 0.2}, {"binder": "H-HSQGTFTSDYSKYLDRARADDFVAWLKST-NH2", "note": "[ZP2495]", "EC50 of cAMP formation, HEK293 cells expressing human GLP-1R": 0.23}, {"binder": "H-HSQGTFTSDYSKYLDRARAEDFVAWLKST-NH2", "note": "[ZP2637]", "EC50 of cAMP formation, HEK293 cells expressing human GLP-1R": 0.1}, {"binder": "H-HSQGTFTSDYSKYLDRARADDFVAWLKEA-NH2", "note": "[ZP2635]", "EC50 of cAMP formation, HEK293 cells expressing human GLP-1R": 0.2}, {"binder": "B1", "EC50 of cAMP formation, HEK293 cells expressing human GLP-1R": 0.8}, {"binder": "H-HSQGTFTSDYSKYLDRARADDFVAWLERA-NH2", "note": "[ZP2650]", "EC50 of cAMP formation, HEK293 cells expressing human GLP-1R": 0.8}, {"binder": "H-HSQGTFTSDYSKYLDRARAHDFVAWLKST-NH2", "note": "[ZP2648]", "EC50 of cAMP formation, HEK293 cells expressing human GLP-1R": 0.1}]}]}
